Assay results from article PMC4575486, “GDF-5 can act as a context-dependent BMP-2 antagonist” (BMC Biology, 2015).
Where two headings read alike, the source gives them in different places. Blank lines part the entries; values can stand above or below the molecule they belong to.

Key:
[1] = target: T1, extracellular domain of human BMPR-IA (human, UniProt P36894 24-152)
[2] = target: T1, extracellular domain of human BMPR-IA; test: SPR; quality control of the recombinant ligands, as previously described (ref. 17)
[3] = target: T1, extracellular domain of human BMPR-IA; test: cell-based or functional assay

T1 sequence (P36894 24-152): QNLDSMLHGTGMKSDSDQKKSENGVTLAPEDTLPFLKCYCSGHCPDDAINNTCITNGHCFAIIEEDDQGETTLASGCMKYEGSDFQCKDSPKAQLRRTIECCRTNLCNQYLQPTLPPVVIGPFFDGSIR

inhibition of ALP expression induced by 20 nM BMP-2 in C2C12 cells by increasing concentrations of GDF-5 R57A, IC50 [1]: 5 nM | Kd [2]: 1.6 nM
Molecule: GDF-5 R57A (growth and differentiation factor 5, variant R57A) (ligand)

SMAD-1 phosphorylation in ATDC5 and C2C12 cells; concentration needed for phospho-SMAD levels comparable to BMP-2 [3]: ~10 fold | bone formation in the rat orthotopic (calvaria) model; amount of protein needed for the same ossified surface area as BMP-2 or GDF-5 R57A [3]: ~20 fold | inhibition of ALP expression induced by 20 nM BMP-2 in C2C12 cells by increasing concentrations of wild-type GDF-5, IC50 [3]: 70 nM | Kd ([2]; both partners purified): 20 nM
B1: human GDF-5 (growth and differentiation factor 5), wild type (ligand, UniProt P43026 382-501, looked up)
chain: APLATRQGKRPSKNLKARCSRKALHVNFKDMGWDDWIIAPLEYEAFHCEGLCEFPLRSHLEPTNHAVIQTLMNSMDPESTPPTCCVPTRLSPISILFIDSANNVVYKQYEDMVVESCGCR
notes: human growth and differentiation factor 5, recombinant from E. coli; Homodimer; also called wild-type GDF-5; GDF-5WT; source: E. coli, purified (as previously described)
